# Assay results from publication PMC6043480, “Molecular basis for the inhibition of the methyl-lysine binding function of 53BP1 by TIRR” (Nature Communications, 2018).
# Ends that are not written are not given here. dimethyl = dimethyl-lysine
# B1: 53BP1 tandem Tudor domain (residues 1459-1634) (domain or fragment, human, UniProt Q12888 1459-1634, looked up)
# chain: RSDSPEIPFQAAAGPSDGLDASSPGNSFVGLRVVAKWSSNGYFYSGKITRDVGAGKYKLLFDDGYECDVLGKDILLCDPIPLDTEVTALSEDEYFSAGVVKGHRKESGELYYSIEKEGQRKWYKRMAVILSLEQGNRLREQYGLGPYEAVTPLTKAADISLDNLVEGKRKRRSNVS
# notes: also called 53BP1 TTD; TTD; source: E. coli BL21 (DE3), purified (Ni-chelating Sepharose, 3C protease, Source 15Q, Superdex 200 Increase); not shown: His6, N-terminal, cleaved
# B2: Tudor interacting repair regulator (TIRR), residues 6-211 (domain or fragment, human, UniProt Q9BRJ7 6-211, looked up)
# chain: VPELKQISRVEAMRLGPGWSHSCHAMLYAANPGQLFGRIPMRFSVLMQMRFDGLLGFPGGFVDRRFWSLEDGLNRVLGLGLGCLRLTEADYLSSHLTEGPHRVVAHLYARQLTLEQLHAVEISAVHSRDHGLEVLGLVRVPLYTQKDRVGGFPNFLSNAFVSTAKCQLLFALKVLNMMPEEKLVEALAAATEKQKKALEKLLPASS
# notes: two TIRR molecules in the crystal; also called NUDT16L1; wild-type TIRR; source: E. coli BL21 (DE3), purified (Ni-chelating Sepharose, 3C protease, Superdex 200 Increase); not shown: His6, N-terminal, cleaved
# Legend:
# [1] = target: B2; experiment: AUC; sedimentation velocity, 60,000 rpm, 20 °C, 10 mM Tris-HCl pH 8.0, 200 mM NaCl, 3 mM DTT; TIRR 53 μM, TTD 35 μM, mixture 20 μM TIRR with 20 μM TTD; conditions: both partners purified
# [2] = target: B2; experiment: ITC; 25 °C, PBS pH 7.0 with 140 mM NaCl; 150 μM 53BP1 TTD injected into 15 μM TIRR or its mutants; 80-100 μM TTD mutant into 8-10 μM TIRR; 750 μM H4K20me2 peptide into 37.5 μM TTD; conditions: both partners purified
# [3] = target: the molecule itself; experiment: AUC; sedimentation velocity, 60,000 rpm, 20 °C, 10 mM Tris-HCl pH 8.0, 200 mM NaCl, 3 mM DTT; TIRR 53 μM, TTD 35 μM, mixture 20 μM TIRR with 20 μM TTD
# [4] = target: B1; experiment: ITC; 25 °C, PBS pH 7.0 with 140 mM NaCl; 150 μM 53BP1 TTD injected into 15 μM TIRR or its mutants; 80-100 μM TTD mutant into 8-10 μM TIRR; 750 μM H4K20me2 peptide into 37.5 μM TTD; conditions: both partners purified
binder,measurement,setting,value
B1,stoichiometry N,[1],1
same,Kd,[2],~780 nM
B2,stoichiometry N,[3],2
"KGGAKRHRK(dimethyl)VLRDN (peptide, UniProt P62805 13-26, looked up, histone H4, residues 12-25, dimethylated on lysine 20; Peptide used in ITC) [H4K20me2 peptide (residues 12-25)]",binding result,[4],binds
